For orientation: Kd means the concentration at which binding is half-saturated.

Experimental findings from the Immune Epitope Database (IEDB) are described below.

Bounds are passed on as bounds.

Experiment [1] deals with HLA-B*08:03. The experiment can be described thus: IEDB peptide-MHC binding, purified MHC/direct/fluorescence; filed as Kd, often an IC50 or EC50 that approximates it; ≥ and ≤ were set here for values at or beyond the usual limits of such assays. As to conditions: source organism: Bacillus cereus H3081.97.
Experiment [2] deals with HLA-A*01:01. As to the kind of experiment: IEDB peptide-MHC binding, purified MHC/competitive/fluorescence; filed as Kd, often an IC50 or EC50 that approximates it; ≥ and ≤ were set here for values at or beyond the usual limits of such assays.
Experiment [3] deals with HLA-A*11:01. The description is as above.
Experiment [4] has as its target HLA-A*26:01. Described as above.
Experiment [5] addresses HLA-A*30:01. The description is as above.
Experiment [6] has as its target HLA-B*08:02. The description is as above. Conditions: source organism: Human immunodeficiency virus 1.
For experiment [7], the target named is HLA-B*15:01. The experiment is described as above.
Experiment [8] addresses HLA-B*15:17. Described as above.
For experiment [9], the target named is HLA-B*39:01. The description is as above. Conditions: source organism: Human immunodeficiency virus 1.
For experiment [10], the target named is HLA-B*57:01. The description is as above.
The target of experiment [11] is HLA-A*02:01. The experiment is described as above. Conditions: source organism: Salmonella enterica subsp. enterica serovar Typhi.
Experiment [12] addresses HLA-A*02:03. The description is as above. As to conditions: source organism: Salmonella enterica subsp. enterica serovar Typhi.
Experiment [13] concerns the target HLA-A*02:06. The description is as above. As to conditions: source organism: Salmonella enterica subsp. enterica serovar Typhi.
Experiment [14] deals with HLA-A*03:01. The description is as above. As to conditions: source organism: Salmonella enterica subsp. enterica serovar Typhi.
Experiment [15] addresses HLA-A*31:01. The experiment is described as above. Conditions: source organism: Salmonella enterica subsp. enterica serovar Typhi.
In experiment [16] the target is HLA-A*69:01. Described as above. Conditions: source organism: Salmonella enterica subsp. enterica serovar Typhi.
Experiment [17] deals with HLA-B*08:01. The experiment is described as above. Conditions: source organism: Salmonella enterica subsp. enterica serovar Typhi.
In experiment [18] the target is HLA-B*15:09. The description is as above. Conditions: source organism: Salmonella enterica subsp. enterica serovar Typhi.
Experiment [19] has as its target HLA-B*27:05. The experiment is described as above. Conditions: source organism: Salmonella enterica subsp. enterica serovar Typhi.
Experiment [20] addresses HLA-B*38:01. The experiment is described as above. As to conditions: source organism: Salmonella enterica subsp. enterica serovar Typhi.
For experiment [21], the target named is HLA-B*40:01. The description is as above. As to conditions: source organism: Salmonella enterica subsp. enterica serovar Typhi.
Experiment [22] deals with HLA-B*48:01. Described as above. Conditions: source organism: Salmonella enterica subsp. enterica serovar Typhi.
The target in experiment [23] is HLA-B*58:01. The description is as above. As to conditions: source organism: Salmonella enterica subsp. enterica serovar Typhi.
Setting [24] is: source organism: Human immunodeficiency virus 1.
[25] abbreviates: source organism: Salmonella enterica subsp. enterica serovar Typhi.

Regarding FPKVRAQEL, the Kd in [1] is 209 nM. This counts as sub-micromolar.
Regarding GTEEIRSLY, the Kd in experiment [2] (setting [24]) is 12 nM; in experiment [3] (setting [24]) it was at least 20 µM; in [4] (setting [24]), 429 nM; in experiment [5] (setting [24]), 13 µM; in [6], at least 20 µM; in experiment [7] (setting [24]), at least 20000 nM. Also, the Kd in experiment [8] (setting [24]) was 60.5 nM; in [9], at least 20 µM; in [10] (setting [24]) it was at least 20000 nM.
With MSAIVSCRY, the Kd in experiment [2] (setting [25]) is 4 nM; in experiment [11] it was at least 20 µM; in experiment [12], at least 20 µM; in experiment [13] it was at least 20 µM; in experiment [14] it was 882 nM; in experiment [3] (setting [25]), at least 20 µM. Besides, the dissociation constant Kd is 235 nM in experiment [4] (setting [25]); 1.4 µM in [5] (setting [25]); at least 20 µM in [15]; at least 20 µM in experiment [16]; at least 20 µM in experiment [17]; 51.2 nM in experiment [7] (setting [25]). Moreover, the Kd was at least 20 µM in experiment [18]; 2.4 nM in experiment [8] (setting [25]); at least 20 µM in [19]; at least 20 µM in experiment [20]; at least 20 µM in [21]; at least 20 µM in [22]. Also, the Kd in experiment [10] (setting [25]) amounted to 237 nM; in experiment [23], 27.5 nM.
